Assay results published in article doi:10.1101/2025.11.15.688623.

Experiments:
[1] = molecular target: AccA3 (biotin carboxylase subunit with C-terminal BCCP domain) (Mycobacterium smegmatis (endogenous in M. smegmatis)); experiment: cryo-EM structure
[2] = molecular target: AccE5 (ε-subunit) (Mycobacterium smegmatis (endogenous in M. smegmatis)); experiment: cryo-EM structure

In the case of “AccA3 (biotin carboxylase subunit with C-terminal BCCP domain) (enzyme)”, the stoichiometry N [1] is reported as 4.

AccE5 (ε-subunit) (natural protein) was tested, and the stoichiometry N [2] was 2.
